Read-outs that look alike come from different tables or passages of the source.
Legend:
[1] = biological target: SEL1L S658P (mouse knock-in) (mouse (endogenous in MEFs and liver)) (UniProt Q9Z2G6); experiment: co-IP
[2] = biological target: SEL1L S658P (mouse knock-in) (mouse (endogenous in MEFs and liver)) (UniProt Q9Z2G6); experiment: co-IP; remark: listed apart in the source

UniProt Q9Z2G6, sequence (Q9Z2G6 22-790, stated change not applied): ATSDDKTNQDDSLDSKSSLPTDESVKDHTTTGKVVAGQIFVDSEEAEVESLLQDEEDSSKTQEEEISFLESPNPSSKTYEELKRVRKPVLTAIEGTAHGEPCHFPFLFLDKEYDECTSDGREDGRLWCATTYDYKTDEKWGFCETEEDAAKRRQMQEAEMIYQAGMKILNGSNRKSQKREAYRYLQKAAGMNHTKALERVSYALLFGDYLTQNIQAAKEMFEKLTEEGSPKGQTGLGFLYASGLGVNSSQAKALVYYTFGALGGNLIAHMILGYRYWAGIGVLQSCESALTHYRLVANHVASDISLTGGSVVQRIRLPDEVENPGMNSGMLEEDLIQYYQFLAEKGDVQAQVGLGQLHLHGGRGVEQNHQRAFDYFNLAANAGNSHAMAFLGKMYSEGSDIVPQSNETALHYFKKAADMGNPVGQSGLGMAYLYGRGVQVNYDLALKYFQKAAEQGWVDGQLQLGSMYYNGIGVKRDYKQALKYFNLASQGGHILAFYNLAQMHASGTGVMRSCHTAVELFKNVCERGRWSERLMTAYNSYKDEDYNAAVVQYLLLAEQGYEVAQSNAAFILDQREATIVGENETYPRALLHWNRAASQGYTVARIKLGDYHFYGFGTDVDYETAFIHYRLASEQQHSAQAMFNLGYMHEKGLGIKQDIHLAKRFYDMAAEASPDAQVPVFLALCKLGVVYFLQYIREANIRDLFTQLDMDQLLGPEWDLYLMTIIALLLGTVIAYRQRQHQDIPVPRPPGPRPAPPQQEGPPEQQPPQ

## HRD1 (mouse) (from UniProt Q9DBY1 1-612) (natural protein)
[1]
  percent reduction of co-precipitated HRD1 against WT SEL1L: 60%
[2]
  percent reduction of co-precipitated HRD1 against WT SEL1L: 80%
